# Reference: article PMC10605901, “Clinical Cases and the Molecular Profiling of a Novel Childhood Encephalopathy-Causing GNAO1 Mutation P170R” (Cells, 2023)
# B1: 3xHA-RGS19 (natural protein, UniProt P49795 1-217, looked up)
# chain: MPTPHEAEKQITGPEEADRPPSMSSHDTASPAAPSRNPCCLCWCCCCSCSWNQERRRAWQASRESKLQPLPSCEVCATPSPEEVQSWAQSFDKLMHSPAGRSVFRAFLRTEYSEENMLFWLACEELKAEANQHVVDEKARLIYEDYVSILSPKEVSLDSRVREGINKKMQEPSAHTFDDAQLQIYTLMHRDSYPRFLSSPTYRALLLQGPSQSSSEA
# notes: RGS19 (regulator of G-protein signaling 19); also called 3×HA-RGS19; RGS19 (tagged with 3 × HA); source: N2a cells, transfected, in lysate
# Target: T1, Gαo[P170R]^Gly92-GFP (human, UniProt P09471-1 1-354, P170R)
# T1 construct: Pathogenic de novo variant found in two patients; also called Gαo[P170R]-GFP; P170R mutant; source: N2a cells, transfected, in lysate; not shown: GFP, internal (after residue 92), kept
# T1 sequence (P09471 whole entry P170R): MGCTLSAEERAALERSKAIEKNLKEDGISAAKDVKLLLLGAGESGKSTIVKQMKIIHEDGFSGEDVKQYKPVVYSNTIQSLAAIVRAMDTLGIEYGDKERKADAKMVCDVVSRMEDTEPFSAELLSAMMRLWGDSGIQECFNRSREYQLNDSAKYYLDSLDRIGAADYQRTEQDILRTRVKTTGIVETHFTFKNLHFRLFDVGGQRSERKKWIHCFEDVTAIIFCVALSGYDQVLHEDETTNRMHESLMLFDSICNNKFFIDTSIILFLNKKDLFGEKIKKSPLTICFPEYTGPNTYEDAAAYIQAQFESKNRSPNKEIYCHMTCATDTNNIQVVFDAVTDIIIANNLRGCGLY
# Experiment: co-IP; N2a cells co-transfected with Gαo-GFP constructs and mRFP-Gβ1/mRFP-Gγ3 (1:1:1) or HA-RGS19 (1:1); cleared lysates (20 mM Tris-HCl pH 8.0, 1% Triton X-100, 10% glycerol in PBS) incubated with GST-tagged anti-GFP nanobody, then Glutathione Sepharose 4B beads overnight at 4 °C; Western blot for GFP, mRFP and/or HA; quantification normalized to the precipitated Gαo-GFP
# Settings: partners not purified
binder,measurement,value
B1,fold reduction of co-precipitated RGS19 against wild-type Gαo-GFP,> 2 fold
